From patent publication US20190225682A1

Target: cyno ST2L (cyno)
Experiment: affinity table, cyno ST2L; method not stated

B1: STLM107 (antibody, from another filing, V domains shown)
VH: EVQLLESGGGLVQPGGSLRLSCAASGFTFSDYAMFWVRQAPGKGLEWVSAIEGEGGETNYADSVKGRFTISRDNSKNTLYLQMNSLRAEDTAVYYCARDPWSTEGSFFVLDYWGQGTLVTVSS
VL: EIVLTQSPATLSLSPGERATLSCRASQSVDDDLAWYQQKPGQAPRLLIYDASNRATGIPARFSGSGSGTDFTLTISSLEPEDFAVYYCQQYIGAPITFGQGTKVEIK
Binder B1 has a koff of 0.00065 s⁻¹.
